# T1: ^FAMFAT10 (GG–FAT10 N-terminally labeled with fluorescein amidite by sortase) (human, 5-FAM on the N terminus (5-FAM conjugated to the N terminus of the peptide …, attached by sortase))
# T1 chain: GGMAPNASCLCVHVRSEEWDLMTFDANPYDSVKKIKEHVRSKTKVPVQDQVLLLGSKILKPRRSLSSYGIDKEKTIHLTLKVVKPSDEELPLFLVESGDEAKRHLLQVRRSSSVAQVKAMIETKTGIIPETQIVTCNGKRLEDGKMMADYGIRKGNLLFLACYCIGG
# B1: NUB1^Δ1–175 (domain or fragment)
# chain: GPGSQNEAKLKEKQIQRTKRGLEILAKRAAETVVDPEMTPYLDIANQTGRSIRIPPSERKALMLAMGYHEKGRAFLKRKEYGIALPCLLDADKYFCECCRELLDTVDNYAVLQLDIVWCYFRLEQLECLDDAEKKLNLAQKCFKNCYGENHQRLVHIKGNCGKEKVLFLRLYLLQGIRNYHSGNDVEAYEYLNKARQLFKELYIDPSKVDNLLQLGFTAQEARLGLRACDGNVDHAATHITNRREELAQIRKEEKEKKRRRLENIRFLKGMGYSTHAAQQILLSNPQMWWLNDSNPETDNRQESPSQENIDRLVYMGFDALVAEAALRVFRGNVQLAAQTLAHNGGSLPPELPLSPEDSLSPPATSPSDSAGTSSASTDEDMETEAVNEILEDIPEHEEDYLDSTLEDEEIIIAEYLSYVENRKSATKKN
# Target: T1, ^FAMFAT10 (GG–FAT10 N-terminally …)
# Assay: FP
binder,measurement,value
B1,Kd,152 nM
